For test [1], the target named is F137L/E363G variant of S. pyogenes enolase (S. pyogenes) (UniProt P69949). In words: AUC; sedimentation velocity; 19.4 µM enolase after incubation in 0.2 M NaClO4; octamer to monomers.
Test [2] has the same target. In words: AUC; sedimentation velocity, 15°C; 2.7 µM enolase incubated 18 h at 15°C in TME with NaClO4 (up to 0.4 M); octamer to monomers.
Test [3] has the same target. Description: AUC; sedimentation velocity; 19.4 µM enolase incubated in 0.2 M NaClO4, then dialysed 24 hours against buffer (reassociation).
Test [4] shares this target. In words: AUC; sedimentation velocity, 20°C; pH 9.0, 50 mM Tris or glycine with 1 mM Mg(OAc)2 and 0.1 mM EDTA; octamer to monomers.
Test [5] shares this target. In words: AUC; sedimentation velocity, 20°C; pH 7.4, 50 mM Tris with 1 mM Mg(OAc)2 and 0.1 mM EDTA.
The target is the same in test [6]. In words: AUC; sedimentation velocity; 22.7 µM enolase in TME with varying NaClO4; octamer to monomers.

As usually defined, the stoichiometry N is a count of units in the complex or per binding partner. As for “F137L/E363G variant of S. pyogenes enolase (from UniProt P69949 1-435) (enzyme)”, the percent octameric in 0.2 M NaClO4 in test [1] was 21%. In test [2], this substance gave a NaClO4 concentration at 50% dissociation of 0.06 M. Also, in test [3], the percent octameric after dialysis against buffer amounted to 77%. In test [4], this substance displayed a percent monomeric of 54% and a percent octameric of 39%. In test [5], this substance had a percent octameric of 88% and a stoichiometry N of 8. In test [6], this substance had a NaClO4 concentration at 50% dissociation of 0.12 M.

Source of the values: PMC2809091.
